The record followed here is patent US20030040012A1 (published 2003).

Substitutions are numbered along the chain they refer to. Names may count otherwise.

In assay [1] the target is T1, NpwBP (Homo sapiens (Human), UniProt Q9Y2W2 1-641).
T1 construct: Expressed inside COS7 cells, without an added protein A because it has its own nuclear localization signal
T1 sequence: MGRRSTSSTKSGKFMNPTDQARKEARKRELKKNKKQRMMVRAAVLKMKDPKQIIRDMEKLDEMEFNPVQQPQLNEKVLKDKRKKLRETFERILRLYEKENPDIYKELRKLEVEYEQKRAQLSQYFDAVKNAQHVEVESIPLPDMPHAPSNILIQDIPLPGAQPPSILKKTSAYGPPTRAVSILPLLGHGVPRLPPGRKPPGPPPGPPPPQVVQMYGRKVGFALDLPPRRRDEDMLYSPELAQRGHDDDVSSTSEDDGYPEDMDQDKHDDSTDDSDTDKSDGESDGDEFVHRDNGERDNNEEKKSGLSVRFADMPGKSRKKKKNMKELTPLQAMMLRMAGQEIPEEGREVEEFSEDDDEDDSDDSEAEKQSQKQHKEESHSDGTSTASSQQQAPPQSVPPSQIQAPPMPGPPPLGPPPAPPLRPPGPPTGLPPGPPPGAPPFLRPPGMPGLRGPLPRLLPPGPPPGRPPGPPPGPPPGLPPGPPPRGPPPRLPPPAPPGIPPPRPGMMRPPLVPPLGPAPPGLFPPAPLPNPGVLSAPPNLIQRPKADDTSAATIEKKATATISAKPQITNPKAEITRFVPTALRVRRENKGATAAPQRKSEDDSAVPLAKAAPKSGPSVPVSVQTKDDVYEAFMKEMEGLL
Briefly: competition by co-expression in COS7 cells, GFP localization.

Assay [2] concerns the target T2, fusion protein NpwBP(P2)-GFP (UniProt P42212 1-238 = GFP, limits assumed).
T2 construct: Expressed inside COS7 cells from pKA1-NpwBP(P2)-GFP; also called NpwBP-GFP
Put plainly: co-expression in COS7 cells, fluorescence microscopy of GFP localization. Here is the method: After the medium was removed, the cell sur were washed with a phosphate buffer solution (PBS), and then further washed with a 50 mM Tris-HCl (pH 7.5)-containing DMEM. To these cells, added was a suspension comprising 1 μl of a plasmid suspension, 0.6 ml of DMEM and 3 μl of […]™ (from IBF), and incubated in the presence of 5% CO₂ at 37° C. for 12 hours. Then, the cells were washed with PBS, and fixed with 4% peraformaldehyde-containing PBS at room temperature for 10 minutes. The thus-fixed cells were washed with PBS, then treated with 0.2% Triton X-100, and thereafter blocked with 5% milk PBS. […]
First, pKA1-NpwBP(P1)-GFP or pKA1-NpwBP(P2)-GFP was singly introduced into COS7 cells, and the localization of these fusion proteins in the cells was checked through fluorescence microscopy based on the green fluorescence of GFP as the index thereof. […] Next, along with these NpwBP-GFP fusion protein expression vectors, an Npw38 expression vector, pKA1-Npw38 was introduced into COS7 cells, and the green fluorescence was localized in the nucleus of each cell (FIG. 3b). […] On the other hand, when Npw38(W52A) (A. Komuro et al., Nucl. Acids Res., 27: 1957-1965, 1999), which is a WW domain variant of Npw38, was expressed in the cells in place of HA-Npw38, or when GFP was expressed in the cells in place of NpwBP-GFP, no intranuclear localization of the green fluorescence was found.

B1: fusion protein HA-Npw38 (other)
chain: MPLPVALQTRLAKRGILKHLEPEPEEEIIAEDYDDDPVDYEATRLEGLPPSWYKVFDPSCGLPYYWNADTDLVSWLSPHDPNSVVTKSAKKLRSSNADAEEKLDRSHDKSDRGHDKSDRSHEKLDRGHDKSDRGHDKSDRDRERGYDKVDRERERDRERDRDRGYDKADREEGKERRHHRREELAPYPKSKKAVSRKDEELDPMDPSSYSDAPRGTWSTGLPKRNEAKTGADTTAAGPLFQQRPYPSPGAVLRANAEASRTKQQD
notes: All are treated as the same molecule; not shown: HA tag (protein A of fusion A-X)
As for B1, the binding result in assay [1] and in assay [2] was “binds” throughout.

B2: Npw38(W52A), a WW domain variant of Npw38 (other)
chain: B1 chain with W52A
notes: Expressed in COS7 cells in place of HA-Npw38
As for B2, in assay [2], the binding result is reported as “no binding”.
